In this assay the target is FLAG-tagged eIF3d (wild-type eIF3D-FLAG) (UniProt O15371). Nature of the assay: co-IP; HeLa lysate (50 mM Tris pH7.5, 150 mM NaCl, 1% Triton-X, Benzonase) on anti-flag-beads for 2 h at 4 °C, three washes, western blot; cells treated for 2 h with DMSO or with 3 µM of the CK2 inhibitor CX-5011 before lysis. In general terms: Immunoblotting shows a protein as a band on a membrane.
UniProt O15371, sequence (O15371 whole entry): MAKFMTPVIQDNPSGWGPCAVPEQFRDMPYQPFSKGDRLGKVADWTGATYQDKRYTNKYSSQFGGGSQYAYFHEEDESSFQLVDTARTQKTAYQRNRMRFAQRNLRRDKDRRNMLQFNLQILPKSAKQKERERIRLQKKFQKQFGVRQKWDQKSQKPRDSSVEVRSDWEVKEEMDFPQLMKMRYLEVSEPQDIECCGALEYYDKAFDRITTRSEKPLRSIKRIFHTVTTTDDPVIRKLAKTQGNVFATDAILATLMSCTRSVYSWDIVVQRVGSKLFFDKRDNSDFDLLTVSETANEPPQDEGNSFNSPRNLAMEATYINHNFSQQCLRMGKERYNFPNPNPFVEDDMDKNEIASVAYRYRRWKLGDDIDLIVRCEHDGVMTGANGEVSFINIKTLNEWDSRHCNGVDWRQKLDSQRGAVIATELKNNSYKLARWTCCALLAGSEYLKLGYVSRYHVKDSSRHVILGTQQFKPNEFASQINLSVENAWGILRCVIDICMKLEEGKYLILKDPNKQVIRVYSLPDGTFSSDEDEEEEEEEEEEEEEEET

With “eIF4A (from UniProt P60842 1-406) (natural protein)”, the decrease of co-precipitation (IP relative to input) after the CK2 inhibitor CX-5011 turned out to be 37 % decrease.

For the origin of these results see paper PMC12136000.
